# In publication PMC4176350, “A high security double lock and key mechanism in HUH relaxases controls oriT-processing for plasmid conjugation”:
# T1: TrwCR (TrwC relaxase domain, TrwC-N293) (Escherichia coli? (plasmid R388), UniProt Q47673 1-293)
# T1 sequence: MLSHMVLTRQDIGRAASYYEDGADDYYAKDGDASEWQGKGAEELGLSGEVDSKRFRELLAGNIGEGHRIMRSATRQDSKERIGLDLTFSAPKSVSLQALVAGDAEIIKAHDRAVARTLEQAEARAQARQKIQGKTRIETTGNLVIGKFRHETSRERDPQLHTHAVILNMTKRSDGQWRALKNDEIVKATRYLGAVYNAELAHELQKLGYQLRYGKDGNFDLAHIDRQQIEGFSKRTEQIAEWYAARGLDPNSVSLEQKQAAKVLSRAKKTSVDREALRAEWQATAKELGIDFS
# Biological target: T1, TrwCR (TrwC relaxase domain, TrwC-N293)
# Test: X-ray crystallography; 1:1.5 protein:DNA; Crystallization: TrwCR 6 mg/ml in 200 mM NaCl, 20 mM Tris-HCl pH 7.5, 1 mM DTT, 0.5 mM EDTA; reservoir 2 M ammonium phosphate, 0.1 M Tris-HCl pH 8.5, 22 C
# Details: protein: recombinant; hairpin with 3' single-stranded tail
binder,measurement,value
"GCACCGAAAGGTGCGTATTCTTGGT (structured_DNA) [RIV(23+2), nic mutant IV]",binding result,binds
